Results: ChEMBL document CHEMBL2074123, “Expression cloning of a rat liver Na(+)-independent organic anion transporter” (Proc Natl Acad Sci U S A, 1994)

Substrate: O=C1OC(c2ccc(O)c(S(=O)(=O)O)c2)(c2ccc(O)c(S(=O)(=O)O)c2)c2c(Br)c(Br)c(Br)c(Br)c21
Assay: TP_TRANSPORTER: uptake (no BSA) in Xenopus laevis oocytes
Format: functional, cell-based, Oocyte

B1: Solute carrier organic anion transporter family member 1A1 (Rattus norvegicus) (protein)
chain: MEETEKKIATQEGRLFSKMKVFLLSLTCACLTKSLSGVYMNSMLTQIERQFDISTSVAGLINGSFEIGNLFFIVFVSYFGTKLHRPVVIGIGCVIMGLGCLLMSLPHFFMGRYEYETTISPTGNLSSNSFLCMENRTQTLKPTQDPAECVKEMKSLMWICVMVGNIIRGIGETPIVPLGISYIEDFAKSENSPLYIGILEMGKVAGPIFGLLLGSYCAQIYVDIGSVNTDDLTITPSDTRWVGAWWIGFLVCAGVNILTSIPFFFLPKALPKKGQQENVAVTKDGKVEKYGGQAREENLGITKDFLTFMKRLFCNPIYMLFILTSVLQVNGFINKFTFLPKYLEQQYGKSTAEAIFLIGVYSLPPICLGYLIGGFIMKKFKITVKKAAYLAFCLSVFEYLLFLCHFMLTCDNAAVAGLTTSYKGVQHQLHVESKVLADCNTRCSCSTNTWDPVCGDNGVAYMSACLAGCKKFVGTGTNMVFQDCSCIQSLGNSSAVLGLCKKGPECANRLQYFLILTIIISFIYSLTAIPGYMVFLRCVKSEEKSLGVGLHTFCIRVFAGIPAPVYFGALIDRTCLHWGTLKCGQRGACRMYDINSFRHIYLGLPIALRGSSYLPAFFILILMRKFQFPGDIDSSATDHTEMMLGEKESEHTDVHGSPQVENDGELKTKL
Km: 1.5 µM
